In test [1] the target is T1, human LILRB4 extracellular domain (ECD) recombinant protein (human, UniProt Q8NHJ6 22-259).
T1 construct: extracellular domain; also called LILRB4 ECD; LILRB4-ECD
Briefly: Octet BLI, antibody on protein A sensor, recombinant human LILRB4 in solution. As for the experimental part: FIG. 26 illustrates the kinetic binding measurements (sensor-grams) for exemplary LILRB4 antibodies determined using Octet. Antibody at 30 μg/mL was loaded to the proteins A sensor for 4 min. Following a short baseline in kinetics buffer, the loaded sensors were exposed to a series of recombinant human LILRB4 concentrations (0.1-200 nM) and background subtraction was used to correct for sensor drifting. All experiments were performed with shaking at 1,000 rpm. Background wavelength shifts were measured from reference sensors that were loaded only with antibody. ForteBio's data analysis software was used to fit the data to a 1:1 binding model to extract an association rate and dissociation rate. The KD was calculated by the ratio koff/kon using ForteBio's data analysis software 7.0.
A general note: BLI is a label-free optical method that tracks binding on a fibre tip over time.

Test [2] addresses T1, human LILRB4 extracellular domain (ECD) …. Briefly: ELISA, coated LILRB4 ECD. The procedure: FIG. 22 illustrates the determination of exemplary LILRB4 monoclonal antibody (mAbs) binding to human LILRB4 ECD using a concentration titration (0-10 μg/ml) by ELISA. X axis indicates the antibody concentrations and Y-axis is binding signals in OD (450 nm). LILRB4 ECD recombinant protein was coated on high absorption 96-well plates. Serial diluted (3-fold) LILRB4 mAb was added to the coated/blocked and detected using goat anti-rabbit IgG F(ab)₂-conjugated HRP as secondary antibody. The titration curves were fitted using 4-parameter fitting curve using the GraphPad software for EC50 estimation.
Background: ELISA stands for enzyme-linked immunosorbent assay.

For test [3] the target is unchanged. In words: Octet.
Another test deals with LILRA4 (human (not printed on the sheet), UniProt P59901). In words: LILR reporter cells on coated antibody, GFP positive (%). As for the experimental part: (§1) FIGS. 41A-41M illustrate specific binding of h193 antibodies to LILRB4 protein. FIGS. 41A-41L illustrate the specificity of h193 antibodies determined by LILR reporter assays, in which LILR reporter cells are added to the plates coated with h193 antibodies. The binding of h193 antibodies to the ECD of the LILR member on the surface of the reporter cells induced GFP signal. FIG. 41M illustrates the specificity of an exemplary h193 antibody determined by ELISA. LILRA and LILRB recombinant proteins were coated on high absorption 96-well plates. Serial diluted (5-fold) mAb h193 were added to the coated/blocked plates and detected using goat anti-human IgG F(ab)2 conjugated HRP as secondary antibody.
Chain of LILRA4 (P59901 24-446 limits assumed): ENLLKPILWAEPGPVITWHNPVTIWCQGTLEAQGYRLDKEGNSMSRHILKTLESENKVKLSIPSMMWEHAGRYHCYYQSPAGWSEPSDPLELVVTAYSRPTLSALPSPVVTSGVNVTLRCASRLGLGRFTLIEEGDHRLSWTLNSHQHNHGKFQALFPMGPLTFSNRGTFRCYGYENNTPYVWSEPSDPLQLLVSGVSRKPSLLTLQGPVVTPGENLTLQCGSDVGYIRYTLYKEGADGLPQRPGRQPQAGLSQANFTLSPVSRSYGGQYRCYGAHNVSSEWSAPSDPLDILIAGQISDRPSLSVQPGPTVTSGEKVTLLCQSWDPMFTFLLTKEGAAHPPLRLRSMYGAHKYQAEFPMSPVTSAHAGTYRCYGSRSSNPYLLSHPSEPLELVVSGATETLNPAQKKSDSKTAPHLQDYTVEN

For a further test, the target named is LILRA2 (human (not printed on the sheet), UniProt Q8N149). Described as above. As for the experimental part: as §1
Chain of LILRA2 (Q8N149 24-449 limits assumed): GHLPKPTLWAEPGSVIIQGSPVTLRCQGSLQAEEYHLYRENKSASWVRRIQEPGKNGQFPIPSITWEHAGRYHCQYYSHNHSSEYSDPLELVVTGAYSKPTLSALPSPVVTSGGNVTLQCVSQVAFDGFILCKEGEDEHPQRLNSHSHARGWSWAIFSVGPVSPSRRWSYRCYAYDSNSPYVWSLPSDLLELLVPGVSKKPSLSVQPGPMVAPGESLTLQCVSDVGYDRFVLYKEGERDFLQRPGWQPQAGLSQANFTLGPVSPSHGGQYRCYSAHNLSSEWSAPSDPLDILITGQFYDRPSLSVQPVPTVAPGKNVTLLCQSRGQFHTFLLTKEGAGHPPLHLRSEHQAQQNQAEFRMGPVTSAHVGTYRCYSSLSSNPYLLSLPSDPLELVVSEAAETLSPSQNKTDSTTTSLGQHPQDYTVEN
For a further test, the target named is LILRA5 (human (not printed on the sheet), UniProt A6NI73). Described as above. The procedure: as §1
Chain of LILRA5 (A6NI73 42-268 limits assumed): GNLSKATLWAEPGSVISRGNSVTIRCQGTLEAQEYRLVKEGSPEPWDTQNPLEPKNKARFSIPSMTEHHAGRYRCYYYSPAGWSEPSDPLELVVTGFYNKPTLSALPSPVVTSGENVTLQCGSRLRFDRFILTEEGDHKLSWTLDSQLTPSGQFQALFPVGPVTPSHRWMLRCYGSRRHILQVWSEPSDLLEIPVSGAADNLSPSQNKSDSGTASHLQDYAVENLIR
The target of another test is LILRA6 (human (not printed on the sheet), UniProt Q6PI73). The test is described as above. As for the experimental part:
as §1

The next test deals with LILRA1 (human (not printed on the sheet), UniProt O75019). The test is described as above. As for the experimental part:
as §1

The next test concerns the target LILRB3 (human (not printed on the sheet), UniProt O75022). The test is described as above. As for the experimental part:
as §1

The target of the next test is LILRB5 (human (not printed on the sheet), UniProt O75023). The description is as above. The procedure:
as §1

Another test has as its target LILRB1 (human (not printed on the sheet), UniProt Q8NHL6). Described as above. As for the experimental part:
as §1

For another test, the target named is LILRA3 (human (not printed on the sheet), UniProt Q8N6C8). Described as above. As for the experimental part:
as §1

Another test deals with LILRB2 (human (not printed on the sheet), UniProt Q8N423). The description is as above. As for the experimental part: as §1
Chain of LILRB2 (Q8N423 22-460 limits assumed): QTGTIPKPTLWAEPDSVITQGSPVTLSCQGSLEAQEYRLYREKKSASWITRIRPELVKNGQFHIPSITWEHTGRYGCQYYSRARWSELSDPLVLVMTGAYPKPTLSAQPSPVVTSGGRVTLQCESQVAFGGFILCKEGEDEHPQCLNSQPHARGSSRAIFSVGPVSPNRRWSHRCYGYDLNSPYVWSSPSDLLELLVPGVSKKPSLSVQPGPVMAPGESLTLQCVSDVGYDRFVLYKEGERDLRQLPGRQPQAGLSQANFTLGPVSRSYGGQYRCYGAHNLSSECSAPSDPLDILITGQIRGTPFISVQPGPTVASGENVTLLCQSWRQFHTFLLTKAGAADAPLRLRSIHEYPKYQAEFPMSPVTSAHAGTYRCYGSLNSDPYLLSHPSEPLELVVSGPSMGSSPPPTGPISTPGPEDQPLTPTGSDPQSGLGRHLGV
Test [4] deals with T1, human LILRB4 extracellular domain (ECD) …. Briefly: ELISA.
For test [5], the target named is T2, human LILRB4 D1 recombinant protein (human, UniProt Q8NHJ6 24-119, limits assumed).
T2 construct: domain: D1 domain; also called LILRB4 D1 domain (D1); Ig domain-1
T2 sequence (Q8NHJ6 24-119 limits assumed): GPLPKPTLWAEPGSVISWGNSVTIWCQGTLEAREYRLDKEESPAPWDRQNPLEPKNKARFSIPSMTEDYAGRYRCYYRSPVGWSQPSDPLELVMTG
Briefly: ELISA, LILRB4 D1 recombinant protein coated, anti-rabbit IgG F(ab)2-HRP. As for the experimental part:
FIGS. 23A-23B. FIG. 23A is a schematic of the LILRB4 extracellular domain (ECD). […] FIG. 23B illustrates the determination of exemplary LILRB4 mAbs binding to Ig domain-1 (D1 domain) of human LILRB4. X axis indicates the antibody concentrations and Y-axis is binding signals in OD (450 nm). LILRB4 D1 recombinant protein was coated on high absorption 96-well plates. Serial diluted (3-fold) LILRB4 mAb was added to the coated/blocked plates and detected using goat anti-rabbit IgG F(ab)₂-conjugated HRP as secondary antibody.

Residue numbers refer to the chain shown, from its start. Where “and” joins values, the source holds several entries; their conditions need not be identical. Identical values can stand only once.

Usually Kd stands for the free concentration of one partner at which half of the binding sites on the other are occupied at equilibrium, for simple one-to-one binding. What is called EC50 is the concentration giving half of the maximal effect. The koff is a measure of how fast the partners let go of each other. A word on the kon: it is a measure of how fast the partners come together. For orientation: EC50 (read off the curve) means the concentration giving half of the maximal effect.

Chain of LILRB5 (O75023 24-458 limits assumed): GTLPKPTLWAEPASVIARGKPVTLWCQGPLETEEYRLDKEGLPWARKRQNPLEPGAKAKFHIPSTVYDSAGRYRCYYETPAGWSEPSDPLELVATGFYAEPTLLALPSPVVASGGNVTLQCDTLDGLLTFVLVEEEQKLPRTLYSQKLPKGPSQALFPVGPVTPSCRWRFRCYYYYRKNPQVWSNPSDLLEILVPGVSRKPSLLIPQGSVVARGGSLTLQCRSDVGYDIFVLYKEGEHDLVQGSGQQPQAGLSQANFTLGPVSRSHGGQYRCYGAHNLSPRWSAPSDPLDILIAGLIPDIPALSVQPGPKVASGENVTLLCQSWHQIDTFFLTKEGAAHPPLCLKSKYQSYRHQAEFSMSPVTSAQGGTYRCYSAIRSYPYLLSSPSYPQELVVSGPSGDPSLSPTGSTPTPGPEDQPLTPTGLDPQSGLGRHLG
Chain of LILRA6 (Q6PI73 24-447 limits assumed): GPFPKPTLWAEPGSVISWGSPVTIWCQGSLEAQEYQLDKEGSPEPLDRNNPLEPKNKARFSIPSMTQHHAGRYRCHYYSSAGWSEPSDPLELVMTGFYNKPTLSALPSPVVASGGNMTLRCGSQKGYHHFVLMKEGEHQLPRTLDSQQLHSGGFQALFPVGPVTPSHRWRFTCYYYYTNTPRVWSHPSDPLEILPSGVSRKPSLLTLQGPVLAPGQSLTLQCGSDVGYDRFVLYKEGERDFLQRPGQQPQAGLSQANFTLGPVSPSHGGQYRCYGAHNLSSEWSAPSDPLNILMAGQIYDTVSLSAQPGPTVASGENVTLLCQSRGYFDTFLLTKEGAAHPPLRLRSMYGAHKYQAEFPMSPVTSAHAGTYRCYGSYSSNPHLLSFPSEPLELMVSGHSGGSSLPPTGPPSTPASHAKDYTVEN
Chain of LILRB3 (O75022 24-443 limits assumed): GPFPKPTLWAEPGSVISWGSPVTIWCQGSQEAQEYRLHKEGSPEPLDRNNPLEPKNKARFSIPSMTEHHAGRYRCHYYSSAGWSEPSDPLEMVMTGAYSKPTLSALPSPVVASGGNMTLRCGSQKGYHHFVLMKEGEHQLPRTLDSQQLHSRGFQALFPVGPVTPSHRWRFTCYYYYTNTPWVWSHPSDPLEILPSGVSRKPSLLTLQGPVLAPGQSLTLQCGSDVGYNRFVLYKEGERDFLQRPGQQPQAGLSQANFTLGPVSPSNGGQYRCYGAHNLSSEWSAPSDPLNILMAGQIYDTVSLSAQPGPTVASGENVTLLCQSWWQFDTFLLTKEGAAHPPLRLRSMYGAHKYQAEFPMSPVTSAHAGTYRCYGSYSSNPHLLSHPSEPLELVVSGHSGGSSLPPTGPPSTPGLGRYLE
Chain of LILRB1 (Q8NHL6 24-461 limits assumed): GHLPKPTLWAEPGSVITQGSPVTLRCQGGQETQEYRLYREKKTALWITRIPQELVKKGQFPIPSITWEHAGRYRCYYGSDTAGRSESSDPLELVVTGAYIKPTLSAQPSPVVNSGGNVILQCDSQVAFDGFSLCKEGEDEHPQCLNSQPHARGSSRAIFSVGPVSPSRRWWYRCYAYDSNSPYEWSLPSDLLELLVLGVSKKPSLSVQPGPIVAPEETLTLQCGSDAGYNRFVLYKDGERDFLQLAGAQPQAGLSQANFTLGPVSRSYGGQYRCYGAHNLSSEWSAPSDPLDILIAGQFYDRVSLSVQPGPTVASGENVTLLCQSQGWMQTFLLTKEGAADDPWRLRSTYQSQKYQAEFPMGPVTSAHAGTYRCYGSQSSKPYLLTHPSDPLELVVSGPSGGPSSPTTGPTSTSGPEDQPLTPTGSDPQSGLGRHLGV
Chain of LILRA1 (O75019 17-461 limits assumed): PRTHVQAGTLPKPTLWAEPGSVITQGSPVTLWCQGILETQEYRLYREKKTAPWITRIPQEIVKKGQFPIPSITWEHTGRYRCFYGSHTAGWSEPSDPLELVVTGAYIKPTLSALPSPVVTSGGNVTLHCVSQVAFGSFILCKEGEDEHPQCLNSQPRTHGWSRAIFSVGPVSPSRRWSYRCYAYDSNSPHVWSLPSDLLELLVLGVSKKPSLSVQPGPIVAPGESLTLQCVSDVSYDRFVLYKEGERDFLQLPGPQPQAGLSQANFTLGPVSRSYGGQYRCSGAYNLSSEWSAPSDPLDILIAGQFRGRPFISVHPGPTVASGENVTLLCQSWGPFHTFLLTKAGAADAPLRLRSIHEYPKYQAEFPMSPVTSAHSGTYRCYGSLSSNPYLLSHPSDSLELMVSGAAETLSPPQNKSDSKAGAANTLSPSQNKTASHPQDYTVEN
Chain of LILRA3 (Q8N6C8 24-439 limits assumed): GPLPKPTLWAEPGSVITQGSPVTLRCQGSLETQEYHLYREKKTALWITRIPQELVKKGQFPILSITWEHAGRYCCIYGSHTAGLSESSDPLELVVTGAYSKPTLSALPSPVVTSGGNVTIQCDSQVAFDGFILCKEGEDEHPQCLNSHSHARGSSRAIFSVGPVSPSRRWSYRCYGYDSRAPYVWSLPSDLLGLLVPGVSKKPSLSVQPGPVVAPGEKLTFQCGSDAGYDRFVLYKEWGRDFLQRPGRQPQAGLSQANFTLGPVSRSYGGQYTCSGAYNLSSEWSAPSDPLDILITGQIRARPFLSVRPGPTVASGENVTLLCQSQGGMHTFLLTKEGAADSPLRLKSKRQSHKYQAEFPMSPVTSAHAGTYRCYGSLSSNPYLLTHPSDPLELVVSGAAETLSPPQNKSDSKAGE

B1: B4-72-2 (antibody, V domains shown)
VH: EQSVEESGGRLVTPGTPLTLTCTASGFSLSSYYMSWVRQAPGRGLEYIGVINTGGSAVYATWTKGRFTISRTSTTVDLKMTGLTTEDTATYFCARGWSRGDLWGQGTLVTISS
VL: ELDMTQTPSPVSAAVGGTVTIKCQSSQNVYDDDTLSWYQQKPGQPPKLLIYDASKLASGVPDRFSGSGSGTQFTLTISGVQCDDAATYYCLGVFHDGINNAFGGGTEVEIK
notes: Rabbit monoclonal antibody
For B1, in [1], the Kd came out at 3.73 nM. In addition, in test [2], the EC50 was 0.29 nM.

B2: B4-15-1 (antibody, V domains shown)
VH: SGGLEESGGRLVTPGTPLTLTCTASGFTINSAHMSWVRQAPGKGLEWIGFSTTGGPSYYANWAKGRFTISRTSTTVDLEITSPTIEDTATYFCARDGPGNNIDMDLWGQGTLVTITS
VL: ELDLTQTPASVSEPVGGTVTIKCQASQNRGGSIAWYQQKPGQPPKLLIYSASTLASGVPSRFSGSGYGTEFTLTISGVQCADAGTYYCQSTIYSISDIGAFGGGTEVVVK
notes: Rabbit monoclonal antibody against human LILRB4 ECD
Regarding B2, the EC50 in test [2] worked out at 0.99 nM.

B3: B4-116-1 (antibody, V domains shown)
VH: EQSVEESGGDLVKPGASLTLTCAASGFSFSSTYCMCWVRQAPGKGLEWIACIHGVSTNNRWYASWPKGRFTISKTSSTTVTLQMTSLTAADTATYFCARSDTDYEWGLSLWGPGTLVTISS
VL: ELDLTQTPASVSEPVGGTVTIKCQASESIGSRLAWYQQKPGQRPKLLIYKASTLASGVPSRFSGSGSGTEFTLTVSDLECADVAAYYCQCAGQSSTWAFGGGTEVEIK
notes: Rabbit monoclonal antibody
For B3, in test [1], the Kd came to 0.82 nM. The 50% effective concentration (EC50) in test [2] stood at 2.58 nM.

B4: B4-116-2 (antibody, V domains shown)
VH: B3 VH
VL: B3 VL with D3V, L4M, S12E, E13A, P14V, E106V, I107V
notes: Rabbit monoclonal antibody
In the case of B4, the Kd in [1] came out at 0.495 nM. Further, in [2], the EC50 was 1.7 nM.

B5: h193 antibody No. 35 (h193-H7 / h193-K1) (antibody, V domains shown)
VH: EVQLVESGGGLVQPGGSLRLSCAASGFSLSSSYWISWVRQAPGKGLEWIGSIDSGSVGITYYATWVKGRFTISRDNSKNTLYLQMNSLRAEDTAVYYCARHGDNWALDLWGQGTLVTVSS
VL: DIQMTQSPSTLSASVGDRVTITCQASQSINSWLAWYQQKPGKAPKLLIYKASTLASGVPSRFSGSGSGTEFTLTISSLQPDDFATYYCQHGYIRGDLDNVFGGGTKVEIK
As to B5, the Kd in [3] was 1.05 nM. Moreover, the koff in test [3] was 0.000148 s⁻¹. For the same molecule, the kon in test [3] was found to be 141000 M⁻¹ s⁻¹. Also, the binding result in the test with LILRA4, with LILRA2, with LILRA5, in the test with LILRA6, in the test with LILRA1 and in the test with LILRB3 was “no binding” each time. The binding result in the test with LILRB5, with LILRB1, with LILRA3 and in the test with LILRB2 was “no binding” throughout. The EC50 in test [4] is 0.162 µg/mL and 1.08 nM.

B6: h193 antibody No. 37 (h193-H7 / h193-K3) (antibody, V domains shown)
VH: B5 VH
VL: B5 VL with Q24R
Take B6: the dissociation constant (Kd) in [3] is 0.984 nM. Besides, the off-rate (koff) in test [3] was determined as 0.00014 s⁻¹. Further, in [3], the kon was 143000 M⁻¹ s⁻¹. Also, the binding result in the test with LILRA4, with LILRA2, with LILRA5, with LILRA6, with LILRA1 and with LILRB3 was “no binding” in each case. In addition, the binding result in the test with LILRB5, with LILRB1, with LILRA3 and with LILRB2 was “no binding” in each case. Moreover, the EC50 in [4] was 0.163 µg/mL and 1.08 nM.

B7: h193 antibody No. 36 (h193-H7 / h193-K2) (antibody, V domains shown)
VH: B5 VH
VL: B5 VL with I2L, Q3V, A43P, P59S, F83V
Regarding B7, the equilibrium dissociation constant (Kd) in test [3] came out at 1.01 nM. For the same molecule, the koff in test [3] was 0.000144 s⁻¹. In addition, the kon in [3] was 143000 M⁻¹ s⁻¹. Moreover, the binding result with LILRA4, in the test with LILRA2, with LILRA5, with LILRA6, in the test with LILRA1 and with LILRB3 was “no binding” in each case. In addition, the binding result in the test with LILRB5, in the test with LILRB1, in the test with LILRA3 and in the test with LILRB2 was “no binding” throughout. Moreover, the EC50 in [4] is 0.145 µg/mL and 0.96 nM.

B8: B4-49 (antibody, V domains shown)
VH: QSLEESGGDLVKPGASLTLTCTASGFDFSSSGWICWVRQAPGKGLELIACIYSGRSGSTYYASWAKGRVTISKTSSTTVTLQMTSLTAADTATYFCARALYVDYVDYDYIDLWGPGTLVTVSS
VL: ELDLTQTPASVEAAVGGTVTIKCQASQSTGIRLAWYQQKPGQPPKLLMYATSNLASGVSSRFKGSGSGTEFTLTISDLECADAATYYCQYSYYGSSYVFDFGGGTEVEIK
notes: Rabbit monoclonal antibody
As to B8, in [1], the Kd worked out at 0.0233 nM. Further, in test [2], the EC50 stood at 1.01 nM.

B9: B4-86 (antibody, V domains shown)
VH: EQSVESGGDLVKPEGSLTLTCTVSGFSFSSSYWICWVRQAPGKGLEWIGCIGTGSGSTYYGSWAKGRFTISKTSSTTVTLQMTSLTAADTATYFCVRGAGYSSYRLWGPGTLVTISS
VL: ELDMTQTPASVSEPVGGTVTIKCQASESVSNWLAWYQQKPGQRPKLLIYGASTLESGVPSRFSGSGSGTEFTLTISNLECADAATYYCQQGYDWDNIDNAFGGGTEVVVK
notes: Rabbit monoclonal antibody
For the molecule B9, the Kd in test [1] worked out at 0.344 nM. In test [2], the EC50 came to 1.02 nM.

B10: B4-87 (antibody, V domains shown)
VH: QSVKESGGDLVKPGASLTLTCTASGFSFISTYWICWVRQAPGKGLELIACIYTGGSGSTYYASWAKGRFTISKTSSTTVTLQLNSLTAADTATYFCARALYVDYVDYDYIDLWGPGTLVTVSS
VL: ELDLTQTPASVEAAVGGTVTIKCQASENIGSRLAWYQQKPGQPPKLLIYAASNLASGVSSRFKGSRSGTQFTLTISDLECADAAIYYCQCSYYGSTYVFGFGGGTEVEIK
notes: Rabbit monoclonal antibody
In the case of B10, the dissociation constant Kd in test [1] was found to be 0.238 nM. The “EC50 (read off the curve)” value in test [5] is around 0.2 mg/L. Moreover, in [2], the EC50 was found to be 2.54 nM.

Source of the values: patent publication US20210371518A1 (University of Texas, published 2021).
